# In US20250154284A1 (INMAGENE PTE, published 2025):
# Target: T1, recombinant human MASP-2 protein (human, UniProt O00187 16-686)
# T1 construct: Used as analyte in BLI and SPR; also called hMASP-2; hMASP2-FL
# Assay: BLI (Gator), antibody on Protein A biosensor, human MASP-2, 30 C
# Description: The assay was performed at 30° C. and the kinetics buffer was 1×PBS (136 mM NaCl, 8 mM […], 2 mM KH₂PO₄, 2.6 mM KCl) with 0.1% BSA and 0.005% Tween-20, pH7.4. Diluted antibodies and human MASP-2 were added to the corresponding well. After loading human MASP-2, biosensor detected the association and dissociation of antibodies. The regeneration of biosensors was in buffer 10 mM glycine, pH2.0.
# T1 sequence (O00187 16-686): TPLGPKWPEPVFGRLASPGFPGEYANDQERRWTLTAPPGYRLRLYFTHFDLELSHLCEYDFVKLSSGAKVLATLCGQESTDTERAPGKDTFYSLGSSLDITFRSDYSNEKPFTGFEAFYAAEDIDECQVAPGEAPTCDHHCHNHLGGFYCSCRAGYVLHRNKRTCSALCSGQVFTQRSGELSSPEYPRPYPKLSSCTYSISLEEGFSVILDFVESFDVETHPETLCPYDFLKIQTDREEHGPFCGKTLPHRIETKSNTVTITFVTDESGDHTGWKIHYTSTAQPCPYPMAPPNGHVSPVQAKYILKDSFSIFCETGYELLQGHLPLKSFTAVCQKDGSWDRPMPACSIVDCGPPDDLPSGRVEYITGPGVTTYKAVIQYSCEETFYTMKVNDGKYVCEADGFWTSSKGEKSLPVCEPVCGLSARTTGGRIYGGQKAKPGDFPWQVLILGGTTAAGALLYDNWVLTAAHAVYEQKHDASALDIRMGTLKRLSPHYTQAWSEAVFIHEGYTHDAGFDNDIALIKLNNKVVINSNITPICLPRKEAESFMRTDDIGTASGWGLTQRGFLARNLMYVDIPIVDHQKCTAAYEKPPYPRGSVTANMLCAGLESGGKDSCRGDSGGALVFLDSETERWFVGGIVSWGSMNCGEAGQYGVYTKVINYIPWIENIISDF
Binder,Kd [nM],koff [s⁻¹],kon [M⁻¹ s⁻¹]
"3E10-hu-9 (antibody, V domains shown, also called humanized 3E10 clone with 3E10-hu-VH-9) VH: QVQLVESGGGVVQPGRSLRLSCAASGFSLTTYGVHWVRQAPGKGLEWLGVIWKGGSTDYNAAFMSRLTISKDNSKSTVYIQMNSLRAEDTAVYYCAKTLELRRRDYYAMDYWGQGTLVTVSS VL: DIVMTQSPDSLAVSLGERATINCKSSQNILYSSNQKNLLAWYQQKPGQPPKLLIYWASTRESGVPDRFSGSGSGTDFTLTISSLQAEDVAVYYCHQYFSSYTFGQGTKLEIK",12.8,0.000952,74200
"3E10-hu-6 (antibody, V domains shown, also called humanized 3E10 clone with 3E10-hu-VH-6) VH: QVQLVESGGGVVQPGRSLRLSCAASGFTLSTYGVHWVRQAPGKGLEWLGVIWKGGSTDYNAAFMSRLTISKDNSKNTVYIQMNSLRAEDTAVYYCAKTLELRRRDYYAMDYWGQGTLVTVSS VL: DIVMTQSPDSLAVSLGERATINCKSSQNILYSSNQKNLLAWYQQKPGQPPKLLIYWASTRESGVPDRFSGSGSGTDFTLTISSLQAEDVAVYYCHQYFSSYTFGQGTKLEIK",15.2,0.000985,64600
"3E10-hu-8 (antibody, V domains shown, also called humanized 3E10 clone with 3E10-hu-VH-8) VH: QVQLVESGGGVVQPGRSLRLSCAASGFSLTTYGVHWVRQAPGKGLEWLGVIWKGGSTDYNAAFMSRLTISKDNSKNTVYIQMNSLRAEDTAVYYCAKTLELRRRDYYAMDYWGQGTLVTVSS VL: DIVMTQSPDSLAVSLGERATINCKSSQNILYSSNQKNLLAWYQQKPGQPPKLLIYWASTRESGVPDRFSGSGSGTDFTLTISSLQAEDVAVYYCHQYFSSYTFGQGTKLEIK",15.6,0.00107,68600
"3E10-hu-7-1 (antibody, V domains shown, also called humanized 3E10 clone with 3E10-hu-VH-7-1) VH: QVQLVESGGGVVQPGRSLRLSCAASGFTLSTYGVHWVRQAPGKGLEWLGVIWKGGSTDYNAAFMSRLTISKDNSKSTVYIQMNSLRAEDTAVYYCAKTLELRRRDYYAMDYWGQGTLVTVSS VL: DIVMTQSPDSLAVSLGERATINCKSSQNILYSSNQKNLLAWYQQKPGQPPKLLIYWASTRESGVPDRFSGSGSGTDFTLTISSLQAEDVAVYYCHQYFSSYTFGQGTKLEIK",17.3,0.00114,65700
"3E10-hu-10 (antibody, V domains shown, also called humanized 3E10 clone with 3E10-hu-VH-10) VH: QVQLVESGGGVVQPGRSLRLSCAASGFSLTTYGVHWVRQAPGKGLEWLGVIWKGGSTDYNAAFMSRLTISKDNSKSTVYIQMNSLRAEDTAVYYCVKTLELRRRDYYAMDYWGQGTLVTVSS VL: DIVMTQSPDSLAVSLGERATINCKSSQNILYSSNQKNLLAWYQQKPGQPPKLLIYWASTRESGVPDRFSGSGSGTDFTLTISSLQAEDVAVYYCHQYFSSYTFGQGTKLEIK",15.3,0.00111,72800
"3E10-hu-0 (antibody, V domains shown, also called humanized 3E10 clone with 3E10-hu-VH-0) VH: QVQLVESGGGVVQPGRSLRLSCAASGFTFSTYGVHWVRQAPGKGLEWVAVIWKGGSTDYNAAFMSRFTISRDNSKNTIYIQMNSLRAEDTAVYYCAKTLELRRRDYYAMDYWGQGTLVTVSS VL: DIVMTQSPDSLAVSLGERATINCKSSQNILYSSNQKNLLAWYQQKPGQPPKLLIYWASTRESGVPDRFSGSGSGTDFTLTISSLQAEDVAVYYCHQYFSSYTFGQGTKLEIK",26.3,0.00102,38700
"anti-MASP-2 antibody clone 3E10 (chimeric 3E10) (antibody, V domains shown, Mouse variable regions; tested as a 'chimeric' antibody; also called 3E10-mus) VH: EVQLQQSGPGLVQSSQSLSITCTVSGFSLTTYGVHWVRLSPGKGLEWLGVIWKGGSTDYNAAFMSRLSITKDNSKSEVFFQMNSLQGDDSAIYYCVKTLELRRRDYYAMDYWGQGTSVTVSS VL: DIVMTQTTSSLAVSAGEKVTMSCKSSQNILYSSNQKNLLAWYQQKPGQSPKLLIYWASTRESGVPNRFTGSGSGTDFSLTINSVQPEDLAVYYCHQYFSSYTFGGGTKLEMK",15.4,0.00113,73500

# The remaining lines, values ahead:
Kd [nM],koff [s⁻¹],kon [M⁻¹ s⁻¹],Binder
14.7,0.00107,72900,"3E10-hu-7-2 (antibody, V domains shown, also called humanized 3E10 clone with 3E10-hu-VH-7-2) VH: QVQLVESGGGVVQPGRSLRLSCAASGFTLSTYGVHWVRQAPGKGLEWLGVIWKGGSTDYNAAFMSRLTISKDNSKNTVYIQMNSLRAEDTAVYYCVKTLELRRRDYYAMDYWGQGTLVTVSS VL: DIVMTQSPDSLAVSLGERATINCKSSQNILYSSNQKNLLAWYQQKPGQPPKLLIYWASTRESGVPDRFSGSGSGTDFTLTISSLQAEDVAVYYCHQYFSSYTFGQGTKLEIK"
14.3,0.00103,72300,"3E10-hu-12 (antibody, V domains shown, also called humanized 3E10 clone with 3E10-hu-VH-12) VH: QVQLVESGGGVVQPGRSLRISCAVSGFSLTTYGVHWVRQAPGKGLEWLGVIWKGGSTDYNAAFMSRLTISKDNSKSTVYIQMNSLRAEDTAVYYCVKTLELRRRDYYAMDYWGQGTLVTVSS VL: DIVMTQSPDSLAVSLGERATINCKSSQNILYSSNQKNLLAWYQQKPGQPPKLLIYWASTRESGVPDRFSGSGSGTDFTLTISSLQAEDVAVYYCHQYFSSYTFGQGTKLEIK"
13.7,0.00107,77700,"3E10-hu-11 (antibody, V domains shown, also called humanized 3E10 clone with 3E10-hu-VH-11) VH: QVQLVESGGGVVQPGRSLRISCAASGFSLTTYGVHWVRQAPGKGLEWLGVIWKGGSTDYNAAFMSRLTISKDNSKSTVYIQMNSLRAEDTAVYYCVKTLELRRRDYYAMDYWGQGTLVTVSS VL: DIVMTQSPDSLAVSLGERATINCKSSQNILYSSNQKNLLAWYQQKPGQPPKLLIYWASTRESGVPDRFSGSGSGTDFTLTISSLQAEDVAVYYCHQYFSSYTFGQGTKLEIK"

# Target: T1, recombinant human MASP-2 protein
# Assay: cell-based or functional assay
"IC50 of C3 activation (mannan-coated plate, human serum) [ng/mL]","IC50 of C4 activation (mannan-coated plate, human serum) [ng/mL]",IC50 of C4 activation in 5% human serum [ng/mL],IC50 of C4 activation in 10% human serum (methods say 25%) [ng/mL],IC50 of C4 activation in 50% human serum [ng/mL],"IC50 of MAC activation (mannan-coated plate, human serum) [ng/mL]",Binder
4.14,3.6,8.26,30.8,67.3,3.27,"anti-MASP-2 antibody clone 3E10 (chimeric 3E10) (antibody, V domains shown, Mouse variable regions; tested as a 'chimeric' antibody; also called 3E10-mus) VH: EVQLQQSGPGLVQSSQSLSITCTVSGFSLTTYGVHWVRLSPGKGLEWLGVIWKGGSTDYNAAFMSRLSITKDNSKSEVFFQMNSLQGDDSAIYYCVKTLELRRRDYYAMDYWGQGTSVTVSS VL: DIVMTQTTSSLAVSAGEKVTMSCKSSQNILYSSNQKNLLAWYQQKPGQSPKLLIYWASTRESGVPNRFTGSGSGTDFSLTINSVQPEDLAVYYCHQYFSSYTFGGGTKLEMK"

# Target: T1, recombinant human MASP-2 protein
# Assay: BLI (Gator), antibody on Protein A biosensor, recombinant MASP-2 25-200 nM, 30 C
# Description: Recombinant MASP-2 protein was diluted with kinetics buffer to get a concentration gradient: 200 nM, 100 nM, 50 nM, 25 nM, and 0 nM (reference control). Antibodies were immobilized onto Protein A biosensor after balance. A baseline was detected for 60 seconds. Then, antibody-antigen association was detected for 120 seconds to obtain data for Kₒₙ, followed by detection of dissociation in kinetic buffer for 120 seconds to obtain data for Koff. The regeneration of biosensors was done in buffer 10 mM glycine, pH2.0. All the kinetics data were collected at 30° C. Data were acquired with Gator Bioanalysis System.
Kd [nM],koff [s⁻¹],kon [M⁻¹ s⁻¹],Binder
< 0.1,< 1e-06,29600,"anti-MASP-2 antibody clone 3E10 (chimeric 3E10) (antibody, V domains shown, Mouse variable regions; tested as a 'chimeric' antibody; also called 3E10-mus) VH: EVQLQQSGPGLVQSSQSLSITCTVSGFSLTTYGVHWVRLSPGKGLEWLGVIWKGGSTDYNAAFMSRLSITKDNSKSEVFFQMNSLQGDDSAIYYCVKTLELRRRDYYAMDYWGQGTSVTVSS VL: DIVMTQTTSSLAVSAGEKVTMSCKSSQNILYSSNQKNLLAWYQQKPGQSPKLLIYWASTRESGVPNRFTGSGSGTDFSLTINSVQPEDLAVYYCHQYFSSYTFGGGTKLEMK"
